Reference: patent US20200362306A1 (published 2020)

Target: T1, human mesothelin (human, UniProt Q13421 296-580, limits assumed)
T1 construct: also called MSLN
Assay: method not stated; affinity given in parentheses for the binder

T1 sequence (Q13421 other isoform, or with tags, fused parts or gaps limits assumed): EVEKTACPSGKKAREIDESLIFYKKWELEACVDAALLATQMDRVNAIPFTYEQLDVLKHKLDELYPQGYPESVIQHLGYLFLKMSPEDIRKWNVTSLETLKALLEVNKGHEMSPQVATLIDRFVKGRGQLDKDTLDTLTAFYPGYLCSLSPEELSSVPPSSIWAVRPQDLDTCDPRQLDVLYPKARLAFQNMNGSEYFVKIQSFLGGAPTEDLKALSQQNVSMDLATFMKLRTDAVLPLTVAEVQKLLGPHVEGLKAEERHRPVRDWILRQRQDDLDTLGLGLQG

B1: Single domain anti-MSLN binder 1 (SD1) (VHH)
VHH: EVQLVESGGGLVQPGGSLRLSCAASGGDWSANFMYWYRQAPGKQRELVARISGRGVVDYVESVKGRFTISRDNSKNTLYLQMNSLRAEDTAVYYCAVASYWGQGTLVTVSS
notes: also called anti-MSLN-SD1
Kd: 25 nM

B2: Single domain anti-MSLN binder 4 (SD4) (VHH)
VHH: EVQLVESGGGLVQPGGSLRLSCAASGSTSSINTMYWYRQAPGKERELVAFISSGGSTNVRDSVKGRFTISRDNSKNTLYLQMNSLRAEDTAVYYCNTYIPYGGTLHDFWGQGTLVTVSS
notes: also called anti-MSLN-SD4
Kd: 6 nM
